From patent US20250313605A1
*1 amine or outer side, *2 acyl side, *3 side chain or, on linkers, in order; H or OH if unused. Where no end group is shown, it is not given here. Side-chain parts run from the residue outwards. [ ]: non-standard residue; d: D form. The star is where a group is joined. C20 diacid = O=C(O)CCCCCCCCCCCCCCCCCCC(=O)*; γGlu = O=C(O)[C@H](CCC(=O)[*:2])N[*:1]; AEEA = NCCOCCOCC(=O)O; Aib = CC(C)(N)C(=O)O

B1: Example 17 (peptide)
peptide: Y[Aib]QGTFTSDYSILLDKK([AEEA-AEEA-γGlu-C20 diacid])AQ[Aib]AFIEYLLE[Aib]GPSSGAPPPS-NH2
modifications: N-terminus assumed
SMILES: CC[C@H](C)[C@H](NC(=O)[C@H](Cc1ccccc1)NC(=O)[C@H](C)NC(=O)C(C)(C)NC(=O)[C@H](CCC(N)=O)NC(=O)[C@H](C)NC(=O)[C@H](CCCCNC(=O)COCCOCCNC(=O)COCCOCCNC(=O)CC[C@H](NC(=O)CCCCCCCCCCCCCCCCCCC(=O)O)C(=O)O)NC(=O)[C@H](CCCCN)NC(=O)[C@H](CC(=O)O)NC(=O)[C@H](CC(C)C)NC(=O)[C@H](CC(C)C)NC(=O)[C@@H](NC(=O)[C@H](CO)NC(=O)[C@H](Cc1ccc(O)cc1)NC(=O)[C@H](CC(=O)O)NC(=O)[C@H](CO)NC(=O)[C@@H](NC(=O)[C@H](Cc1ccccc1)NC(=O)[C@@H](NC(=O)CNC(=O)[C@H](CCC(N)=O)NC(=O)C(C)(C)NC(=O)[C@@H](N)Cc1ccc(O)cc1)[C@@H](C)O)[C@@H](C)O)[C@@H](C)CC)C(=O)N[C@@H](CCC(=O)O)C(=O)N[C@@H](Cc1ccc(O)cc1)C(=O)N[C@@H](CC(C)C)C(=O)N[C@@H](CC(C)C)C(=O)N[C@@H](CCC(=O)O)C(=O)NC(C)(C)C(=O)NCC(=O)N1CCC[C@H]1C(=O)N[C@@H](CO)C(=O)N[C@@H](CO)C(=O)NCC(=O)N[C@@H](C)C(=O)N1CCC[C@H]1C(=O)N1CCC[C@H]1C(=O)N1CCC[C@H]1C(=O)N[C@@H](CO)C(N)=O
B2: Example 15 (peptide)
peptide: Y[Aib]QGTFTSDYSILLDKK([AEEA-AEEA-γGlu-C20 diacid])AQ[Aib]AFIEYLLA[Aib]GPSSGAPPPS-NH2
modifications: N-terminus assumed
SMILES: CC[C@H](C)[C@H](NC(=O)[C@H](Cc1ccccc1)NC(=O)[C@H](C)NC(=O)C(C)(C)NC(=O)[C@H](CCC(N)=O)NC(=O)[C@H](C)NC(=O)[C@H](CCCCNC(=O)COCCOCCNC(=O)COCCOCCNC(=O)CC[C@H](NC(=O)CCCCCCCCCCCCCCCCCCC(=O)O)C(=O)O)NC(=O)[C@H](CCCCN)NC(=O)[C@H](CC(=O)O)NC(=O)[C@H](CC(C)C)NC(=O)[C@H](CC(C)C)NC(=O)[C@@H](NC(=O)[C@H](CO)NC(=O)[C@H](Cc1ccc(O)cc1)NC(=O)[C@H](CC(=O)O)NC(=O)[C@H](CO)NC(=O)[C@@H](NC(=O)[C@H](Cc1ccccc1)NC(=O)[C@@H](NC(=O)CNC(=O)[C@H](CCC(N)=O)NC(=O)C(C)(C)NC(=O)[C@@H](N)Cc1ccc(O)cc1)[C@@H](C)O)[C@@H](C)O)[C@@H](C)CC)C(=O)N[C@@H](CCC(=O)O)C(=O)N[C@@H](Cc1ccc(O)cc1)C(=O)N[C@@H](CC(C)C)C(=O)N[C@@H](CC(C)C)C(=O)N[C@@H](C)C(=O)NC(C)(C)C(=O)NCC(=O)N1CCC[C@H]1C(=O)N[C@@H](CO)C(=O)N[C@@H](CO)C(=O)NCC(=O)N[C@@H](C)C(=O)N1CCC[C@H]1C(=O)N1CCC[C@H]1C(=O)N1CCC[C@H]1C(=O)N[C@@H](CO)C(N)=O

Biological target: human glucagon receptor (human), P47871
Sequence (P47871 26-477): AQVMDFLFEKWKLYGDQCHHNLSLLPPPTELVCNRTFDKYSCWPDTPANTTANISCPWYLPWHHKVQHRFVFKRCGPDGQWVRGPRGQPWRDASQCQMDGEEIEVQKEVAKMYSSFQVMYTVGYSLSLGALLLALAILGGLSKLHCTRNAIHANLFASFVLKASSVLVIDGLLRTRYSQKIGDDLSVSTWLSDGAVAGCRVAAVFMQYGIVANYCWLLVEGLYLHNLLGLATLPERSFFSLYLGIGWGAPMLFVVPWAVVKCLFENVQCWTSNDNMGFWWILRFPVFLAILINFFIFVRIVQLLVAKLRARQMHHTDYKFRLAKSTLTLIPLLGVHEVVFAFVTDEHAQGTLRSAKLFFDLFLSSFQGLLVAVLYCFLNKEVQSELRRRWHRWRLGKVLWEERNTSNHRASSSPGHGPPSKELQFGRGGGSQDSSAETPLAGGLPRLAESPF
Test: cell-based or functional assay

Row | Binder | cAMP EC50 (0.1% casein) [nM] | cAMP EC50 (FBS and BSA present) [nM]
1 | Y[Aib]QGTFTSDYSILLDKK([AEEA-γGlu-C20 diacid])AQ[Aib]AFIEYLLEGGPSSGAPPPS-NH2 [Example 18] | 0.0861 | 5.71
2 | B1 | 0.135 | 8.05
3 | Y[Aib]QGTFTSDYSILLDKK([AEEA-AEEA-γGlu-C20 diacid])AQ[Aib]AFIEYLLEGGPSSGAPPPS-NH2 [Example 16] | 0.174 | 13.2
4 | B2 | 0.131 | 5.92

Biological target: T1, human GIP receptor (human), P48546
T1 chain: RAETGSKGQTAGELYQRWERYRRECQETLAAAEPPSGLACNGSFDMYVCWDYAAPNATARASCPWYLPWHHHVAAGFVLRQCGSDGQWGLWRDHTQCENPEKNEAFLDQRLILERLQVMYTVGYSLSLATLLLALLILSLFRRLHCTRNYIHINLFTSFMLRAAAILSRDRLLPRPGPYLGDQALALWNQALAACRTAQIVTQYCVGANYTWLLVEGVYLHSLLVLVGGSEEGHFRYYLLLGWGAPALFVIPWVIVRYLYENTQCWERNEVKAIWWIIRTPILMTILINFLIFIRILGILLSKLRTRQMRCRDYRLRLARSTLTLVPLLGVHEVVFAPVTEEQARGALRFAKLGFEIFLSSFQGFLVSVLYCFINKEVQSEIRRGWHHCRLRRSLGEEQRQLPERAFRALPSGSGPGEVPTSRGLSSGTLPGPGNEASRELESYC
Test: cell-based or functional assay

Row | Binder | cAMP EC50 (0.1% casein) [nM] | cAMP EC50 (FBS and BSA present) [nM]
5 | Y[Aib]QGTFTSDYSILLDKK([AEEA-γGlu-C20 diacid])AQ[Aib]AFIEYLLEGGPSSGAPPPS-NH2 [Example 18] | 0.123 | 5.89
6 | B1 | 0.0439 | 2.38
7 | Y[Aib]QGTFTSDYSILLDKK([AEEA-AEEA-γGlu-C20 diacid])AQ[Aib]AFIEYLLEGGPSSGAPPPS-NH2 [Example 16] | 0.114 | 4.37
8 | B2 | 0.0689 | 1.47

Biological target: T2, human GLP-1 receptor (human), P43220
T2 chain: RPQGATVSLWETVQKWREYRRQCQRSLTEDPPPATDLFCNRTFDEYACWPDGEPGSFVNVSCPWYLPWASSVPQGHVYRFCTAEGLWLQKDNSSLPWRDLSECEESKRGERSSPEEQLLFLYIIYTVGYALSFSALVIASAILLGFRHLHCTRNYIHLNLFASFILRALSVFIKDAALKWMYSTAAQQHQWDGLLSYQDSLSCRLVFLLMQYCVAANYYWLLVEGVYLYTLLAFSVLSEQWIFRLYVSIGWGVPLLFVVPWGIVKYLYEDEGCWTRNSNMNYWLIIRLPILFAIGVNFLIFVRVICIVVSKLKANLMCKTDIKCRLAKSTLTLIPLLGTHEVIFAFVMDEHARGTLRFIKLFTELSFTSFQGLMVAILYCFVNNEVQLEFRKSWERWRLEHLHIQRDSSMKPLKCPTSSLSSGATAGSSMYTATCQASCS
Test: cell-based or functional assay

Row | Binder | cAMP EC50 (0.1% casein) [nM] | cAMP EC50 (FBS and BSA present) [nM]
9 | Y[Aib]QGTFTSDYSILLDKK([AEEA-γGlu-C20 diacid])AQ[Aib]AFIEYLLEGGPSSGAPPPS-NH2 [Example 18] | 0.141 | 16.1
10 | B1 | 0.153 | 18.4
11 | Y[Aib]QGTFTSDYSILLDKK([AEEA-AEEA-γGlu-C20 diacid])AQ[Aib]AFIEYLLEGGPSSGAPPPS-NH2 [Example 16] | 0.157 | 19
12 | B2 | 0.253 | 10.7

Biological target: human glucagon receptor (human), P47871
Test: radioligand competition SPA, HEK293 membranes

Row | Binder | Ki [nM]
13 | Y[Aib]QGTFTSDYSILLDKK([AEEA-γGlu-C20 diacid])AQ[Aib]AFIEYLLEGGPSSGAPPPS-NH2 [Example 18] | 5.71
14 | B1 | 5.81
15 | Y[Aib]QGTFTSDYSILLDKK([AEEA-AEEA-γGlu-C20 diacid])AQ[Aib]AFIEYLLEGGPSSGAPPPS-NH2 [Example 16] | 11.5
16 | B2 | 4.56

Biological target: T1, human GIP receptor (human), P48546
Test: radioligand competition SPA, HEK293 membranes

Row | Binder | Ki [nM]
17 | Y[Aib]QGTFTSDYSILLDKK([AEEA-γGlu-C20 diacid])AQ[Aib]AFIEYLLEGGPSSGAPPPS-NH2 [Example 18] | 0.0835
18 | B1 | 0.0895
19 | Y[Aib]QGTFTSDYSILLDKK([AEEA-AEEA-γGlu-C20 diacid])AQ[Aib]AFIEYLLEGGPSSGAPPPS-NH2 [Example 16] | 0.106
20 | B2 | 0.0972

Biological target: T2, human GLP-1 receptor (human), P43220
Test: radioligand competition SPA, HEK293 membranes

Row | Binder | Ki [nM]
21 | Y[Aib]QGTFTSDYSILLDKK([AEEA-γGlu-C20 diacid])AQ[Aib]AFIEYLLEGGPSSGAPPPS-NH2 [Example 18] | 8.06
22 | B1 | 10.2
23 | Y[Aib]QGTFTSDYSILLDKK([AEEA-AEEA-γGlu-C20 diacid])AQ[Aib]AFIEYLLEGGPSSGAPPPS-NH2 [Example 16] | 16.1
24 | B2 | 5.8
